Literature values as cited in US12370207B2, “Low-intensity treatment of hematological disorders” (Celator Pharmaceuticals, Inc., priority 2018, dated 2025).

B1: Pegfilgrastim: exogenous (recombinant) GCSF agent (protein, UniProt P09919 31-207, looked up)
Granulocyte …: TPLGPASSLPQSFLLKCLEQVRKIQGDGAALQEKLVSECATYKLCHPEELVLLGHSLGIPWAPLSSCPSQALQLAGCLSQLHSGLFLYQGLLQALEGISPELGPTLDTLQLDVADFATTIWQQMEELGMAPALQPTQGAMPAFASAFQRRAGGVLVASHLQSFLEVSYRVLRHLAQP
modifications: PEGylated, N-terminal Met (pegfilgrastim)
notes: exogenous (recombinant) GCSF agent
B2: Filgrastim: exogenous (recombinant) GCSF agent (protein, UniProt P09919 31-207, looked up)
Granulocyte …: B1 Granulocyte …
modifications: N-terminal Met (filgrastim)
notes: as for B1

What was measured:
[1] = system: hematological malignancies; details: single agent, ISICT patients
[2] = population mean

Row | Molecule | median overall survival [1] | response rates [1] | Fi, bioavailability of first-order absorption process [2] | CL, clearance ([2]; coefficient of equation (WTKG/70)^0.641)
1 | Nc1ccn([C@@H]2O[C@H](CO)[C@@H](O)[C@@H]2O)c(=O)n1 [LDAC] | 7-10 months | less than 20% |  | 
2 | B1 |  |  | 0.646 | 0.362 · (WTKG/70)^0.641 L/h
3 | B2 |  |  | 0.105 | 
